This note sets out measurements from patent US20080213836.

Positions count from the first letter of the chain named. Names and notes keep the numbering of the source.

The labels stand for the following.
B1: Medaka EP-1 serine protease domain mutant K63R (protein)
chain: VVGGVNAEKGAWPWMVSLHWRGRHGCGASLIGRDWLLTAAHCVYGRNTHLQYWSAVLGLHAQSSMNSQEVQIRQVDRIIINKNYNRRTKEADIAMMHLQQPVNFTEWVLPVCLASEDQHFPAGRRCFIAGWGRDAEGGSLPDILQEAEVPLVDQDECQRLLPEYTFTSSMLCAGYPEGGVDSCQGDSGGPLMCLEDARWTLIGVTSFGVGCGRPERPGAYARVSAFTSWIAETRRSSFSDLD
B2: Medaka EP-1 serine protease domain mutant T105E (protein)
chain: B1 chain with R46K, T88E
B3: Medaka EP-1 serine protease domain mutant P193E (protein)
chain: B1 chain with R46K, P176E

Sequence of Human plasma fibronectin, P02751 (P02751 other isoform, or with tags, fused parts or gaps): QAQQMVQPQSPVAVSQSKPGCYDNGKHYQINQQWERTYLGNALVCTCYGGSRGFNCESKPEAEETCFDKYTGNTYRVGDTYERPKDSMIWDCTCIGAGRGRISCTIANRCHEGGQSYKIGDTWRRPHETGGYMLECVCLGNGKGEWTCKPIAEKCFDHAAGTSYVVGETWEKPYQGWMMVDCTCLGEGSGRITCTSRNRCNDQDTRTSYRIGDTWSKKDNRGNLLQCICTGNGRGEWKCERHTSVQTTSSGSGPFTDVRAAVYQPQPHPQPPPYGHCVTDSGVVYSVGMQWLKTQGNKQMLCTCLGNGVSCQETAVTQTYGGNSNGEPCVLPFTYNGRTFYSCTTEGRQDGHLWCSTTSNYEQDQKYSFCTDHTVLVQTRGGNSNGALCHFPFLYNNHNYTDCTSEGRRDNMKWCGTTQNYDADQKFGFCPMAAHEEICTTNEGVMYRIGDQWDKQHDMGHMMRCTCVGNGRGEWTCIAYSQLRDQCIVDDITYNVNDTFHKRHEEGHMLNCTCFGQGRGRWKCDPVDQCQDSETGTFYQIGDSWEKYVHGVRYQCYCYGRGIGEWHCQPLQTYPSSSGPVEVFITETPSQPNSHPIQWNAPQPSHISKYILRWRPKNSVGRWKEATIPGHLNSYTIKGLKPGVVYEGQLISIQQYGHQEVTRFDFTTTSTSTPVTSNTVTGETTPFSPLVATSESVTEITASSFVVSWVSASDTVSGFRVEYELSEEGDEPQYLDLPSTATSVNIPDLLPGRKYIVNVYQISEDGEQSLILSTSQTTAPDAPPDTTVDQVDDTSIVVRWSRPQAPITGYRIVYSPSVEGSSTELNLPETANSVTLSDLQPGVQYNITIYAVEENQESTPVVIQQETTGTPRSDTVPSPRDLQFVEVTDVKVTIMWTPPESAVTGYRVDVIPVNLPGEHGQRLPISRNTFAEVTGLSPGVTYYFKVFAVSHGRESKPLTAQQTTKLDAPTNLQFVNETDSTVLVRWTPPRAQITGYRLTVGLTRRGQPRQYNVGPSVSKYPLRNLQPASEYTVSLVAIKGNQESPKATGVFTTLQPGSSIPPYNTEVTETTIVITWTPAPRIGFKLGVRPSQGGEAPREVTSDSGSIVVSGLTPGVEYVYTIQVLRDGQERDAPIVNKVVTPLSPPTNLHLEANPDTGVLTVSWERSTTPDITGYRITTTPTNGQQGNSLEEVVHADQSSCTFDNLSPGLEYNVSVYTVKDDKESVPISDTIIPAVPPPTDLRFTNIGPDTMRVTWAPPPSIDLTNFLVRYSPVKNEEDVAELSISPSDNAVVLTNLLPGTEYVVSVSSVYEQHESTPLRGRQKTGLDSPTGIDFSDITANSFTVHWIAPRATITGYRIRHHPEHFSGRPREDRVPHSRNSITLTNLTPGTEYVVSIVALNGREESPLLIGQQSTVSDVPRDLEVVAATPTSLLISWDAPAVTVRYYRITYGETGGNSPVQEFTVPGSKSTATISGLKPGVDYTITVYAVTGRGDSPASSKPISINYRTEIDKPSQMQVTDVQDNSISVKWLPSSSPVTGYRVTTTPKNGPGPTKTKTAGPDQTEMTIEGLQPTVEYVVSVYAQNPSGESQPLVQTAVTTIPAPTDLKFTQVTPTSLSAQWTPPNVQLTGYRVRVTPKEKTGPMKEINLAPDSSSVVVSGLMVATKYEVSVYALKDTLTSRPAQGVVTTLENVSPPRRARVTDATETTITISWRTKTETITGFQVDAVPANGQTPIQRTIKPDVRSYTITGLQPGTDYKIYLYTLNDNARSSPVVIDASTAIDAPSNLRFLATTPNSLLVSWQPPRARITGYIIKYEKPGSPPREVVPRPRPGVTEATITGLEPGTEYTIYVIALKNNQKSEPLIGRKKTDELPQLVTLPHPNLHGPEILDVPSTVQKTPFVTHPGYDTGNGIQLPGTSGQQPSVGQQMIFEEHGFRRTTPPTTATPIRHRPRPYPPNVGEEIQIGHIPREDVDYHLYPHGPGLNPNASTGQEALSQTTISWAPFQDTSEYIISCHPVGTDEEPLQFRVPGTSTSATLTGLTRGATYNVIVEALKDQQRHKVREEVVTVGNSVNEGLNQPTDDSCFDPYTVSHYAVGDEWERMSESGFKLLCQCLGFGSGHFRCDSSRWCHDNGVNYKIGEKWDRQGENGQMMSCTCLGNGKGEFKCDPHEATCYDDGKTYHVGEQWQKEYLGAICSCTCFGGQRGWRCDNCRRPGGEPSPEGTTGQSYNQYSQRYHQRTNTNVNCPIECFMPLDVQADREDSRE

For the first series, the target named is recombinant fusion protein of Medaka trypsinogen.
In the case of B1, the activation of trypsinogen entry is recorded as “K63R converted to trypsin as fast as the wild type enzyme” and the “conversion of trypsinogen to active enzyme” value (shortened to “conversion of trypsinogen”) is “A total of 12 mutants could convert the recombinant Medaka trypsinogen to its active enzyme (data not shown)”.
Consider B2, for which the activation of trypsinogen entry was “the other mutants activated trypsinogen at a reduced rate” and the “conversion of trypsinogen” value is “A total of 12 mutants could convert the recombinant Medaka trypsinogen to its active enzyme (data not shown)”.
With B3, the activation of trypsinogen entry is given as “the other mutants activated trypsinogen at a reduced rate” and the “conversion of trypsinogen” value was “A total of 12 mutants could convert the recombinant Medaka trypsinogen to its active enzyme (data not shown)”.

In another series the target is T1, human fibrinogen, P02671.
T1 chain 1: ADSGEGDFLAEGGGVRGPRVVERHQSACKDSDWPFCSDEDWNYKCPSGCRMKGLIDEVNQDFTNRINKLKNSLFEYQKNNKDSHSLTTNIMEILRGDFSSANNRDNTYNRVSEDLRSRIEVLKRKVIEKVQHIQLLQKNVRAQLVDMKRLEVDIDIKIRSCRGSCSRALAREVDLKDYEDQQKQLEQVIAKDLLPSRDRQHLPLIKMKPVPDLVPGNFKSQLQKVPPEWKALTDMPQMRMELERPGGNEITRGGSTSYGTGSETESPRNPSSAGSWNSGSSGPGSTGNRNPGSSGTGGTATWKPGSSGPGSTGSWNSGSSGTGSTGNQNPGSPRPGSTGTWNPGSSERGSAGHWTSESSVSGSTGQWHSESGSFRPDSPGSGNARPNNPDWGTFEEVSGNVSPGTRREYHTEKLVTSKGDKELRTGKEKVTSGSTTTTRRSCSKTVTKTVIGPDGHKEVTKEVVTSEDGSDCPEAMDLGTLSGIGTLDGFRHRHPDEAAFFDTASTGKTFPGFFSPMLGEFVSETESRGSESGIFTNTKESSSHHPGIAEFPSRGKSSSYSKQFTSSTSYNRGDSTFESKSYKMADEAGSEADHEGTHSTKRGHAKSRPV
T1 chain 2: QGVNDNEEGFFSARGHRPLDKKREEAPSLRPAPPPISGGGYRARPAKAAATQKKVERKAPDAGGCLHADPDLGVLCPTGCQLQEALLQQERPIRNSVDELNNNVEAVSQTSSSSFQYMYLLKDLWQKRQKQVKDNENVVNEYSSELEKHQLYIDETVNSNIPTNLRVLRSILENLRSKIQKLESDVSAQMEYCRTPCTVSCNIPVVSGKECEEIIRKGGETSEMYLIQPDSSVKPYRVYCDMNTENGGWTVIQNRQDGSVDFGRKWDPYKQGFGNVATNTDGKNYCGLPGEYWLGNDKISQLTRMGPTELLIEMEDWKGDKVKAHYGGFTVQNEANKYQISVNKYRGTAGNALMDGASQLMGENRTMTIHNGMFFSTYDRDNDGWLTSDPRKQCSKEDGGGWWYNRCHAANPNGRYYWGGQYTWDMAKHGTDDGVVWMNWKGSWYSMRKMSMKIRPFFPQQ
T1 chain 3: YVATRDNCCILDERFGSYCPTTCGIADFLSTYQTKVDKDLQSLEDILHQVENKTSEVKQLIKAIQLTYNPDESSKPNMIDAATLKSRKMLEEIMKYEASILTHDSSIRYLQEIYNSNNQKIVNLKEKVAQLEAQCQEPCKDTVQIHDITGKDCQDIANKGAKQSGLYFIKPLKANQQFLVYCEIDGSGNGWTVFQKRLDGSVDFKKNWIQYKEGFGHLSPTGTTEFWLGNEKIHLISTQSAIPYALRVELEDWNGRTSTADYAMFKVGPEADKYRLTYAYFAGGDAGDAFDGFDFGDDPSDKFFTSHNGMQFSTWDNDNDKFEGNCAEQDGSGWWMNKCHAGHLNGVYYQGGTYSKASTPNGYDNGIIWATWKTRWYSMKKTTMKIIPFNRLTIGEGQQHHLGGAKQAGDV
In the case of B1, the “nonspecific proteolytic activity (SDS-PAGE)” value is given as “The mutant proteases had lower nonspecific proteolytic activity for ... human fibrinogen”.
As to B2, the “nonspecific proteolytic activity (SDS-PAGE)” value was “The mutant proteases had lower nonspecific proteolytic activity for ... human fibrinogen”.
As to B3, the “nonspecific proteolytic activity (SDS-PAGE)” value is reported as “The mutant proteases had lower nonspecific proteolytic activity for ... human fibrinogen”.

In the next series the target is T2, Pro-Phe-Arg-MCA.
T2 chain: PFR
For B1, the Km worked out at 1100 µM, the “enzyme activity against wild-type” value was “consistently resulted in reduced enzyme activity for synthetic peptide substrates”, the kcat turned out to be 0.183 s⁻¹ and the kcat/Km (mM^-1 · min^-1) stood at 10.
For B2, the Michaelis constant (Km) came out at 1300 µM, the “enzyme activity against wild-type” value was “consistently resulted in reduced enzyme activity for synthetic peptide substrates”, the kcat was 0.267 s⁻¹ and the kcat/Km (mM^-1 · min^-1) stood at 12.
For the protein B3, the Km was determined as 1000 µM, the “enzyme activity against wild-type” value is on record as “consistently resulted in reduced enzyme activity for synthetic peptide substrates”, the catalytic constant (kcat) was found to be 0.45 s⁻¹ and the kcat/Km (mM^-1 · min^-1) was determined as 27.

In another series the target is T3, Gly-Asp-Asp-Asp-Asp-Lys-β-naphthylamide.
T3 chain: GDDDDK
Consider B1, for which the Km is 200 µM, the “enzyme activity against wild-type” value is given as “consistently resulted in reduced enzyme activity for synthetic peptide substrates”, the turnover number (kcat) worked out at 3.5 s⁻¹ and the kcat/Km (mM^-1 · min^-1) came to 1100.
As for B2, the Km was 400 µM, the “enzyme activity against wild-type” value is given as “consistently resulted in reduced enzyme activity for synthetic peptide substrates”, the catalytic constant (kcat) was 4.33 s⁻¹ and the kcat/Km (mM^-1 · min^-1) came to 650.
In the case of B3, the Michaelis constant (Km) came to 400 µM, the “enzyme activity against wild-type” value is reported as “consistently resulted in reduced enzyme activity for synthetic peptide substrates”, the catalytic constant (kcat) came to 4.83 s⁻¹ and the kcat/Km (mM^-1 · min^-1) is 730.

Another series concerns the target T4, Boc-Glu(OBzl)-Ala-Arg-MCA.
T4 chain: EAR
On to B1, for which the Km is 1200 µM, the “enzyme activity against wild-type” value was “consistently resulted in reduced enzyme activity for synthetic peptide substrates”, the turnover number (kcat) was 0.2 s⁻¹ and the kcat/Km (mM^-1 · min^-1) is 10.
With B2, the Michaelis constant (Km) amounted to 1300 µM, the “enzyme activity against wild-type” value is given as “consistently resulted in reduced enzyme activity for synthetic peptide substrates”, the kcat amounted to 0.183 s⁻¹ and the kcat/Km (mM^-1 · min^-1) was 9.
On to B3, for which the Km is 200 µM, the “enzyme activity against wild-type” value is given as “consistently resulted in reduced enzyme activity for synthetic peptide substrates”, the kcat was 0.0383 s⁻¹ and the kcat/Km (mM^-1 · min^-1) was 12.

A further series has as its target mouse laminin.
B1: the hydrolysis result is reported as “Neither human fibronectin nor laminin was hydrolyzed by the mutants (data not shown)”.
With B2, the hydrolysis entry is listed as “Neither human fibronectin nor laminin was hydrolyzed by the mutants (data not shown)”.
As for B3, the hydrolysis entry is “Neither human fibronectin nor laminin was hydrolyzed by the mutants (data not shown)”.

In the next series the target is T5, human high-molecular-weight (HMW) kininogen, P01042.
T5 chain: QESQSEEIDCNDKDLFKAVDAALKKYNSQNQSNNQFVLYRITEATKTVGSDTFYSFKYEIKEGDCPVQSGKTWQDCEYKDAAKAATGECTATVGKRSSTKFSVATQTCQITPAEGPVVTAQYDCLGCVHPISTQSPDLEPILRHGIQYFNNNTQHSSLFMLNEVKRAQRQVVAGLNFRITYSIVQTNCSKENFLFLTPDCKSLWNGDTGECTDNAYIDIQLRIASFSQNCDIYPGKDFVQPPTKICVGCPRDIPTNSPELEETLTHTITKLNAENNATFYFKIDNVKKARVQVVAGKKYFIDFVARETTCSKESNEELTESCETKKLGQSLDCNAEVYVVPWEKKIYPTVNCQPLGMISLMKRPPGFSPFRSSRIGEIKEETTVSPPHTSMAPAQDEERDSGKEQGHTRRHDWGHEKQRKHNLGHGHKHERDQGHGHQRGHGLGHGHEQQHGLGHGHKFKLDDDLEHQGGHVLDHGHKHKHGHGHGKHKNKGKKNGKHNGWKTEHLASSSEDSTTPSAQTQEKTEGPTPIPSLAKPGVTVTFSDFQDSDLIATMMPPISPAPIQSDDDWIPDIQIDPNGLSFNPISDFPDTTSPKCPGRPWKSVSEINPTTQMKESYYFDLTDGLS
As to B1, the “nonspecific proteolytic activity (SDS-PAGE)” value is given as “The mutant proteases had lower nonspecific proteolytic activity for human HMW kininogen”.
For the protein B2, the “nonspecific proteolytic activity (SDS-PAGE)” value is “The mutant proteases had lower nonspecific proteolytic activity for human HMW kininogen”.
Still for that read-out and setting: then B3, with “The mutant proteases had lower nonspecific proteolytic activity for human HMW kininogen”.

A further series addresses Human plasma fibronectin, P02751.
As to B1, the hydrolysis entry is on record as “Neither human fibronectin nor laminin was hydrolyzed by the mutants (data not shown)”.
As to B2, the hydrolysis entry is “Neither human fibronectin nor laminin was hydrolyzed by the mutants (data not shown)”.
As for B3, the hydrolysis result was “Neither human fibronectin nor laminin was hydrolyzed by the mutants (data not shown)”.

A further series concerns the target T6, Z-Phe-Arg-MCA.
T6 chain: FR
Turning to B1, the Km was 100 µM, the “enzyme activity against wild-type” value is on record as “consistently resulted in reduced enzyme activity for synthetic peptide substrates”, the turnover number (kcat) worked out at 0.0233 s⁻¹ and the kcat/Km (mM^-1 · min^-1) was determined as 14.
On to B2, for which the Km amounted to 100 µM, the “enzyme activity against wild-type” value is reported as “consistently resulted in reduced enzyme activity for synthetic peptide substrates”, the kcat amounted to 0.0333 s⁻¹ and the kcat/Km (mM^-1 · min^-1) was found to be 20.
As to B3, the Km is 200 µM, the “enzyme activity against wild-type” value is “consistently resulted in reduced enzyme activity for synthetic peptide substrates”, the kcat is 0.0283 s⁻¹ and the kcat/Km (mM^-1 · min^-1) was found to be 9.
